Reference: article PMC11958657

How the values were obtained:
[1] = target: R4-MHC (SIYRYYGL peptide presented by H-2K^b) (mouse | human)
[2] = target: R4-MHC ( peptide presented by H-2K^b) (mouse | human); assay: SPR
[3] = target: L4-MHC ( peptide presented by H-2K^b) (mouse | human); assay: SPR
[4] = target: R4-MHC (SIYRYYGL peptide presented by H-2K^b) (mouse | human); assay: ultra-stable biomembrane force probe (U-BFP), force-clamp bond lifetimes; biotinylated pMHC on a streptavidin bead on a red blood cell probe against a TCR-expressing T cell without CD8; adhesion frequency below 20%; DMEM with 0.5% BSA
[5] = target: L4-MHC (SIYLYYGL peptide presented by H-2K^b) (mouse | human); assay: as above
[6] = target: L4-MHC (SIYLYYGL peptide presented by H-2K^b) (mouse | human); assay: micropipette single-cell adhesion frequency assay; TCR on a hybridoma T cell held by a micropipette, brought into contact with a streptavidin-coated biotinylated human RBC carrying biotinylated pMHC; bi-molecular TCR-pMHC (CD8-); zero force; 2D effective constants from the fit of adhesion frequency against contact time
[7] = target: R4-MHC (SIYRYYGL peptide presented by H-2K^b) (mouse | human); assay: ultra-stable biomembrane force probe (U-BFP), force-clamp bond lifetimes; as a3, but the T cell expresses wild-type CD8αβ beside the TCR (TCR–pMHC–CD8 tri-molecular interaction)
[8] = target: L4-MHC (SIYLYYGL peptide presented by H-2K^b) (mouse | human); assay: as above
[9] = target: R4-MHC (SIYRYYGL peptide presented by H-2K^b) (mouse | human); assay: micropipette single-cell adhesion frequency assay; biotinylated pMHC on streptavidin-coated red blood cells against a TCR-expressing T cell; 2D effective binding affinity AcKa; whether CD8 was on the T cells is not stated
[10] = target: L4-MHC (SIYLYYGL peptide presented by H-2K^b) (mouse | human); assay: as above
[11] = target: R4-MHC (SIYRYYGL peptide presented by H-2K^b) (mouse | human); remark: listed apart in the source
[12] = target: L4-MHC (SIYLYYGL peptide presented by H-2K^b) (mouse | human)
[13] = target: R4-MHC (SIYRYYGL peptide presented by H-2K^b) (mouse | human); assay: ultra-stable biomembrane force probe (U-BFP), force-clamp bond lifetimes; as a3, but the 2C hybridoma cell expresses CD8 with CD8β-Ile2Ala at a level matched to WT CD8

Substance | Kd [2] | Kd [3] | bond lifetime ratio R4-MHC over L4-MHC, high force regime (16–19 pN), without CD8 [4] | bond lifetime ratio R4-MHC over L4-MHC, low force regime (2–5 pN), without CD8 [4] | bond lifetime ratio R4-MHC over L4-MHC, medium force regime (9–12 pN), without CD8 [4] | koff [6] | bond lifetime ratio R4-MHC over L4-MHC, medium force regime (9–12 pN), with CD8 [7] | peak bond lifetime, with CD8 [7] | 2D effective binding affinity (AcKa) [9] | 2D effective binding affinity (AcKa) [10] | also measured
mouse CD8αβ, wild type (from UniProt P01731 28-247; P10300 22-213) (receptor) | – | – | – | – | – | – | – | – | – | – | TCR specificity of 2C hybridoma cells (ratio of IL-2 sensitivities for R4 over L4) with WT CD8 [1]: 65500
2C-TCR, soluble ectodomains | 20200 nM | 38200 nM | – | – | – | – | – | – | – | – | –
m33-TCR | – | – | 7.55 fold | 1.13 fold | 1.99 fold | 4.22 s⁻¹ | 1.19 fold | 5.2 s | 0.0013 μm^4 | 0.00089 μm^4 | peak bond lifetime (at ~12.85 pN), without CD8 [4]: 3.43 s; peak bond lifetime (at ~9.62 pN), without CD8 [5]: 1.82 s; CD8 enhancement power (bond lifetime with CD8 over without CD8), medium force regime [7]: 3.4 fold; CD8 enhancement power (bond lifetime with CD8 over without CD8), medium force regime [8]: 5.7 fold; peak bond lifetime, with CD8 [8]: 3.99 s; R4 peptide concentration (on RMA-S cells) at which m33 hybridoma T cells release IL-2, without CD8 [11]: 100 pM; L4 peptide concentration (on RMA-S cells) at which m33 hybridoma T cells release IL-2, with CD8 [12]: 1 nM
m33-TCR, soluble ectodomains | 187 nM | 567 nM | – | – | – | – | – | – | – | – | –
m67-TCR, soluble ectodomains | 26.3 nM | 96.2 nM | – | – | – | – | – | – | – | – | –
mouse CD8αβ with CD8β-Ile2Ala (from UniProt P01731 28-247; P10300 22-213) (receptor) | – | – | – | – | – | – | – | – | – | – | TCR specificity of 2C hybridoma cells (ratio of IL-2 sensitivities for R4 over L4) with CD8β-Ile2Ala [1]: 7070
m67-TCR | – | – | 2.63 fold | 0.34 fold | 3.77 fold | 4.92 s⁻¹ | 0.96 fold | 5.95 s | 0.0016 μm^4 | 0.00099 μm^4 | peak bond lifetime, without CD8 [4]: 5.94 s; peak bond lifetime, without CD8 [5]: 2.56 s; CD8 enhancement power (bond lifetime with CD8 over without CD8), medium force regime [8]: 4.36 fold; peak bond lifetime, with CD8 [8]: 5.09 s; R4 peptide concentration (on RMA-S cells) at which m67 hybridoma T cells release IL-2, without CD8 [11]: 10 nM; L4 peptide concentration (on RMA-S cells) at which m67 hybridoma T cells release IL-2, with CD8 [12]: 100 pM
2C-TCR | – | – | 5.1 fold | 1.3 fold | 3.38 fold | 6.61 s⁻¹ | 10 fold | 0.8 s | 0.0016 μm^4 | 3.7e-05 μm^4 | peak bond lifetime (at ~8.32 pN), without CD8 [4]: 0.3 s; CD8 enhancement power (bond lifetime with CD8 over without CD8), medium force regime [7]: 3.04 fold; IL-2 production of 2C hybridoma T cells stimulated by RMA-S cells pulsed with R4 peptide, with CD8 against without CD8 [11]: > 100 fold; bond lifetime ratio R4-MHC over L4-MHC, medium force regime, with CD8β-Ile2Ala [13]: 4.81; fold reduction of CD8 enhancement power (CD8β-Ile2Ala against WT CD8) [13]: 2 times; peak bond lifetime, with CD8β-Ile2Ala [13]: 0.54 s
